Test results taken from patent US10858688 (KYOTO UNIVERSITY, dated 2020).
Where no end group is shown, it is not given here. Atto 488 = fluorescent body linked to the N terminus

Biological target: T1, actin filament in fixed Xenopus laevis XTC cells (Xenopus laevis)
T1 construct: whole, on cells; Polymer of actin in fixed cells
Experiment: speckle lifetime distribution in fixed XTC cells, 10 ms/frame at 100 Hz, single exponential fit (FIG. 9a)

B1: Lifeact peptide (sequence number 19) with an Atto 488 fluorescent body linked to an N terminus (peptide)
peptide: {Atto 488}-MGVADLIKKFESISKEE
notes: Purchased from Sigma-Aldrich; also called Atto488-Lifeact; Atto 488-Lifeact
- half-life: 0.023 s
